According to patent publication US20110268745A1 (Novo Nordisk, published 2011):

Target: T1, human tissue factor pathway inhibitor (TFPI) (human, UniProt P10646 29-304, biotinylated in the ELISA (site not stated))
T1 construct: Full length TFPI and a short version, TFPIB161B (first two Kunitz domains), were both used for immunisation and ELISA; also called TFPI1; human TFPI1
T1 sequence: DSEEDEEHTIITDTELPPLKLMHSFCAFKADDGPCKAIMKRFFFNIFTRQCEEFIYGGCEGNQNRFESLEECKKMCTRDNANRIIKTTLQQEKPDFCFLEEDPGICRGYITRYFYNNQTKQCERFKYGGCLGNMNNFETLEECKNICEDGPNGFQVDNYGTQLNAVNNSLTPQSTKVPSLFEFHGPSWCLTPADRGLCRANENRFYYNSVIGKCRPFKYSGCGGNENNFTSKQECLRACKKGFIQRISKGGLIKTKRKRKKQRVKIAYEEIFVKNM
Experiment: hybridoma screening; ELISA with antibody captured on anti-mouse IgG and soluble biotinylated human TFPI or TFPIB161B, as described in the methods
Protocol: Immunoplates were coated with anti-mouse IgG. Culture supernatants from the hybridoma cells were added to the plates and, after washing, soluble biotinylated human TFPI or TFPIB161B was added to test for specific binding.

B1: TFPI-3F18A4B1 (antibody, IgG1, V domains shown)
VH: EVKLVESGGGLVKPGGSLRLSCAASGFTFSNYALSWVRQTPDKRLEWVASISSGGATYYPDSVEGRFTISRDNVRNILYLQMSSLQSEDTAMYYCTRGAYGSDYFDYWGQGTTLTVSS
VL: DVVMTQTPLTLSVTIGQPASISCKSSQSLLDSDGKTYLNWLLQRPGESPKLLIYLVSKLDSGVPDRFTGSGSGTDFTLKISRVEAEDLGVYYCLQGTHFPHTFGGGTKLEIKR
notes: also called TFPI-3F18A2; anti-TFPI antibody 3F18
B1: binds.
